Results published in patent US10400249B2, “HPPD variants and methods of use” (priority 2014, dated 2019).

System: maize T0 events
Assay: greenhouse spray test of maize T0 events for tolerance to Cmpd. 4
Type: in vivo
Conditions: Cmpd. 4 at 100 g AI/ha; for number of maize T0 events in herbicide tolerance class 0 (41%-100% damaged leaf area) / number of maize T0 events in herbicide tolerance class 1 (16%-41% damaged leaf area) / number of maize T0 events in herbicide tolerance class 2 (6%-15% damaged leaf area) / number of maize T0 events in herbicide tolerance class 3 (0%-5% damaged leaf area): six days after application
Excerpt: Constructing the plant expression cassette for stable expression in the maize plant and maize transformation are well known in the art and in this particular example the methods were described and used from the PCT patent publication WO2014/043435 and WO2008/100353. The polynucleotide sequences encoding the HPPD variants in this application have been stacked with a DNA sequence encoding an EPSPS protein variant to confer tolerance to herbicides, which target the EPSPS. The EPSPS gene was isolated and mutated from Arthrobacter globiformis (WO2008/100353) and joined in-frame to a transit peptide sequence to guide translocation of the translated protein to the chloroplast.
The corresponding HPPD variants were cloned with the same promoter, chloroplast transit peptide, and terminator sequence as described for the EPSPS gene expression cassette. The coding sequences for both genes have been codon optimized for maize expression. For the maize transformation ears are best collected 8-12 days after pollination. Embryos were isolated from the ears, and those embryos 0.8-1.5 mm in size were preferred for use in transformation. Embryos were plated scutellum side-up on a suitable incubation media, and incubated overnight at 25° C. in the dark.
However, it was not necessary per se to incubate the embryos overnight. Embryos are contacted with an Agrobacterium strain containing the appropriate vectors having a nucleotide sequence of the present invention for Ti plasmid mediated transfer for about 5-10 min, and then plated onto co-cultivation media for about 3 days (25° C. in the dark). After co-cultivation, explants were transferred to recovery period media for about five days (at 25° C. in the dark). Explants were incubated in selection media with glyphosate for up to eight weeks, depending on the nature and characteristics of the particular selection utilized. After the selection period, the resulting callus were transferred to embryo maturation media, until the formation of mature somatic embryos is observed. The resulting mature somatic embryos were then placed under low light, and the process of regeneration was initiated as known in the art. The resulting shoots were allowed to root on rooting media, and the resulting plants were transferred to nursery pots and propagated as transgenic plants. Plants were routinely analyzed for the expression and presence of the transgenes using the ELISA protein detection method. Only plants recovering in the selection media and having a detectable HPPD transgene protein expression were used for the herbicide tolerance analysis.
Regenerated T0 events from tissue culture were transplanted into two inch square pots with synthetic soil (Fafard® Mix) and controlled-released fertilizer (Haifa Multicote™; polymer-coated controlled-release fertilizer, NPK Pro 18-6-12+ Micronutrients) and cultivated in the greenhouse (GH) under supplementary high pressure sodium light for 12 days at a maximum of 30° C. during the day and a minimum of 22° C. at night. Fully recovered plants were transferred into five inch square pots filled with synthetic soil and control released fertilizer under the same environmental conditions. After seven days the T0 plants have been sprayed with 2-chloro-3-(methylsulfanyl)-N-(1-methyl-1H-tetrazol-5-yl)-4-(trifluoromethyl)benzamide (Cmpd. 4); at agronomic relevant concentration of 100 g AI/ha (with “g AI/ha” meaning “gram of active ingredient per hectare”) prepared from a WP20 (wettable powder 20%) formulation supplemented with esterified vegetable oil mixture (Hasten™ spray adjuvants, 0.578% v/v) and ammonium sulphate (AMS, 0.97% w/v). The herbicide treatment was conducted in a DeVries Tracker Sprayer system with standard application protocols, which are well known in the art. As a spray control T0 events have been sprayed with the adjuvant mixture lacking the herbicide. […]

Row | Molecule | share of tested maize events with good to high tolerance, 15% or less bleached leaf area | share of tested maize events with less than 5% or no visual leaf damage | number of maize T0 events in herbicide tolerance class 0 (41%-100% damaged leaf area) | number of maize T0 events in herbicide tolerance class 1 (16%-41% damaged leaf area) | number of maize T0 events in herbicide tolerance class 2 (6%-15% damaged leaf area) | number of maize T0 events in herbicide tolerance class 3 (0%-5% damaged leaf area)
1 | FLP136: PfHPPD variant P215L, E335P, G336F (protein, HPPD variant - FLP136, PfHPPD variant P215L, E335P, G336F) MADLYENPMGLMGFEFIEFASPTPGTLEPIFEIMGFTKVATHRSKNVHLYRQGEINLILNNEPNSIASYFAAEHGPSVCGMAFRVKDSQKAYNRALELGAQPIHIDTGPMELNLPAIKGIGGAPLYLIDRFGEGSSIYDIDFVYLEGVERNPVGAGLKVIDHLTHNVYRGRMVYWANFYEKLFNFREARYFDIKGEYTGLTSKAMSAPDGMIRILLNEESSKGAGQIEEFLMQFNGEGIQHVAFLTDDLVKTWDALKKIGMRFMTAPPDTYYEMLEGRLPDHGEPVDQLQARGILLDGSSVEGDKRLLLQIFSETLMGPVFFEFIQRKGDDGFGPFNFKALFESIERDQVRRGVLTAD | Approximately 40% | ~15% | 13 | 37 | 21 | 13
2 | FLP202: PfHPPD variant P215L, E335P, G336F, A340E (protein, HPPD variant - FLP202, PfHPPD variant P215L, E335P, G336F, A340E) MADLYENPMGLMGFEFIEFASPTPGTLEPIFEIMGFTKVATHRSKNVHLYRQGEINLILNNEPNSIASYFAAEHGPSVCGMAFRVKDSQKAYNRALELGAQPIHIDTGPMELNLPAIKGIGGAPLYLIDRFGEGSSIYDIDFVYLEGVERNPVGAGLKVIDHLTHNVYRGRMVYWANFYEKLFNFREARYFDIKGEYTGLTSKAMSAPDGMIRILLNEESSKGAGQIEEFLMQFNGEGIQHVAFLTDDLVKTWDALKKIGMRFMTAPPDTYYEMLEGRLPDHGEPVDQLQARGILLDGSSVEGDKRLLLQIFSETLMGPVFFEFIQRKGDDGFGPFNFKELFESIERDQVRRGVLTAD | More than 30% | ~13% | 12 | 49 | 16 | 12
